Measurements as given in paper PMC12691745.

Target: T1, proPpiA (UniProt P0AFL3)
T1 sequence: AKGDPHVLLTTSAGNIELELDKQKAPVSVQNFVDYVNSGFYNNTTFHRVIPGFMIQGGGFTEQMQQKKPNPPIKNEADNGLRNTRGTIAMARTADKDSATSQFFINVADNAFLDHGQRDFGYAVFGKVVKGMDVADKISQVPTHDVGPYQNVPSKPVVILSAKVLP

Sequence of SecB (P0AG86 whole entry): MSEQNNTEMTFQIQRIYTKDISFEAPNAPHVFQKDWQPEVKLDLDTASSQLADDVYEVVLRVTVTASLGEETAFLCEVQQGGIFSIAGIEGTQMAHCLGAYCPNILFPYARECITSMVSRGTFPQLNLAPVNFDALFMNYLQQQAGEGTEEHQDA

solubility of proPpiA after dilution from urea (18 µM protein, 30 min, centrifugation at 20,000× g), with 108 µM SecB; buffer control ~30% soluble: 70%
Substance: SecB (from UniProt P0AG86 1-155) (natural protein)
